The nature of this data set: soluble on expression in E. coli; label from the status in PepcDB or PDB records.
Regarding “MSLKNGLRIYALGGISEIGRNMTVFEYNNRLLIVDCGVLFPSSGEPGVDLILPDFGPIENKLDKVDALVITHGHEDHIGAIPWLLKLRPDMPILASKFTMALIAAKCREHRQRPKLIEVNEKSDINRGPFNIRFWAVNHSIPDCLGVAIKTGAGLVIHTGDVKLDQTPPDGRPTDLPALSRFGDEGVDLLLCESTNATVPGFSGSEADVAPTLKRLISDAKQRVILASFASNVYRVQAAVDAAVAAGRKVAFNGRSMIRNMEIAEKMGYLKAPRGTIVSMDDAAKMAPHKVVLITTGTQGEPMAALSRMARREHRQITVRDGDLIILSSSLVPGNEEAVFGVMNMLSQIGATVVTGRDAKVHTSGHGFAGELLFLYNAARPKNVMPVHGEWRHLRANKELAISTGVEADRVVLAQNGVVVDLVDGRARVVGQMQVGHLYVDGVTMGDIDAEVLEERTSLGEGGLIAITAVIDSRTARLLERPTVQAKGFSEDAVAMMPEVTELVEKTMNDLAAEGENDPYRMVQQLRRRVSRFVEQKWRRKPMIMPTVIPTTSATIDIDDADVRASREGHHHHHH”, the “soluble on expression in E. coli” value is “soluble”. As for “MARNPRTTVRRILNSAPRSLLIQSVTIVALDPTDNNHGSHQPGSNGPSNSSTQADNFETETTADEERQKEDGVEDELEDEETTGFIDEDGEIRYPVDEVGNYEIDQEAETDESFYLDTQRDSSLCDERSQLCRSLSDQNLRTTFFLITTTNSKAAILRYLHFHNVSQDSILRKLLLNDSHLTLVEVCNLCAQNIELCKCEDMQEKCQLIFGDLKKWLEVILNSFANIMMKTKTTILEGYNSSSPINKGIFKKKLLSEMADNEMWMHFESSFDGIKVHKNGNQNIWPYSLLNLDLEDVHRASPQALILAALFIGFKNPTTKIHDRLTQWILLQMDEHVFFSEGVAWKADLTCANHDDPARRIVYNQCGLRSSGSCNFCLNQETECKINDEYTTLRENLTGSCPSTMNDGLRQRNQHSHFHKHVLYMHLCPHYSPKGNGICSRQNRWIFHQHLRFHLDFVRCPAKLHSVLVLRKHCIHGLYRLCIEPQSITDETLHLKQVLYHLARMTELYGSLFPLSTQWFEYFYHTIQRTLVPEIYNGLGMSIMRKMSALQEIKTEAAFRLHTNHQFRTEANLKMCYELGLLRRLKRISVVPTPPQYQQFCETGDVFLNVVYHDGIRYSNYCNKKTDDSNVTFIEYARVRFAKIIGMLLKENNTDLRFILKKYCNTNDHLIDISNKLYEEDVPQMHIQNWVDSVSKSSFGGRVTLTNTVVVVSADSIVGHAVVVKRNNNCVALPFSRRISLS”, the “soluble on expression in E. coli” value was “not soluble”.

Consider “MKENAVRRANDPKRREKIIQATLEAVKTYGVHAVTHRKIAAIAQVPLGSMTYYFAGMDALLSEAFTLFTENMSRQYQDFFAQVTDAEGACQAITEMIYGSQVTTPDNMALMYQLYAYASDKPALKIVMQNWMQRSQNTLAQWFDAQTARALDAFIEGMTLHFVTDRTPLAREAILQMVKRIAGVSMSCHSALGNKKPTNLEPKWRG”, for which the “soluble on expression in E. coli” value was “not soluble”. For “MGNGDKVMSHWSFHIPRLHHHEHDHEKVPKGCLAVKVGQGEEQERFVIPVMYFNHPLFGQLLKEAEEEFGFAQKGTITIPCHVEEFRYVQGLIDRENTRFLGTNLLDHHHHHHNHLIRCFRV”, the “soluble on expression in E. coli” value is given as “not soluble”. “GMAGAAHRLMEARMRRYDNKFARISDIDINQPESWRGRIFLTFDIDWAADFVLQDTIDLIEGAGVCATWFATHSTPLLENIRRNPLFELGVHPNFNPLLAGAHAEGVQEILDRTLELAPGCVSVRSHSLVQATSILNMFGERRLRYDCNILVPWDAGIVLQPWRHWTGDMVRVPYLWEDDVACLYDWEFDSTFDYWYQPDGINVLDFHPIHVYMNTESLRRYEDSREVHRNPVDLIRWRNTSAGSRTFLQSLLARNI”: the “soluble on expression in E. coli” value was “soluble”. Under “HYTSVPNIMKVIKPLFLDKLNQSFLDAYDDYTKLENLLTRIGKIKFFDPACGSGNFLIITYKELRRMEINIIKRLQELLGEYLYVPSVTLSQFYGIEIEDFAHDVAKLSLWIAEHQMNEELKNEVHNAVRPTLPLHTAGDIRCANAIRVEWTEVCPAQGSEEVYVFGNPPYLGSKKQNKEHKSDMLSIFGKVKNGKMLDYISAWFYFGAKYASTTNAKVAFVSTNSVTQGEQVSILWNELFKFGI” stands “not soluble”. Under “MGSDKIHHHHHHMQLKQSIYFHSPIFLQNILTTIYGRVLYQERYGPVYQKRLQELKEKERFQTNAQAEQLARLNQFLLFCQTYSPYYQELFEQHRITLPLETLDELKQIPILSKEILRTRNADVHAKIRAPILGKTGGTTGKSIQVHYTKEDMQIRMAHLDYFKWTHGIERGMRRASFTGQTLAAESQKAPVYWRMNKAINQMLFTIKNINPQTAALYIEQLNRFNPESIDGLPSGMIEVARHAKKYNIPCTFRPKAIFPTAEMMTAAERQLIEEVFHAPIFDQYASSEGAPIVAECRYGKKHLHYEMGIIEVEEDGQILVTSFDTHGTPLVRYRVGDRMTLSEATCQCGHAGPVIASIDGRGRSFIQLKDGHRIFEGELAGIVRAFPNCIERVQYIQSDKEEIVMLYVPDERCFKEEHEKELYFVLKRLFGGQMEVLLRAVPEIPKEISGKTLLIKQLLLEKS” stands “not soluble”; under “MTYPYRTTMALNTYQYRETTMIDPKKIEQIARQVHESMPKGIREFGEDVEKKIRQTLQAQLTRLDLVSREEFDVQTQVLLRTREKLALLEQRISELENRSTEIKKQPDPETLPPTLLEHHHHHH”, “not soluble”; under “MTLYSFRLGLLLFCSLLFGCTAPTPAPVSGLGKDYNKVERGSYRGSYYEVKKGDTLYFIAYLTDKDVNDLISYNDLAPPYTIHPGQKIKLWLPNYTPPAYGGTGGAATVAVASSTSASVAKAATTATVAQTVSKSSNTKNVQNGSTNSQNLTKKDPVKTVDQTKTKEYVEPVGKQNVNVNVAKAKPSDEKIAKWLWPTKGRVIKNFSAGDQGNKGIDIAGQRGQAVVATADGTVVYSGNALRGYGNLIIIKHNEHYLSAYAHNDQLLAKEGQTVQAGQKIATMGSSGTNSVRLHFEIRYQGKSVNPKRYLP”, “not soluble”. Regarding “GSFTMPGLVDSNPAPPESQEKKPLKPCCACPETKKARDACIIEKGEEHCGHLIEAHKECMRALGFKI”, the “soluble on expression in E. coli” value is given as “soluble”.

Consider “MKAILQRSIALLALAAGMSSVACADEVKMRVLGWYGNQPQSQQVERPFWKDLPKRSNGAFSANFRTIDELGLKGFESLRTLQSGAFDVVSFQISFVGGDAPVLMGADLPGAAFDFDQLQKNLDAYRPILEKELNDRFKAKLLTAWSFPFQILYCKGDIKTLDDLKGKKVRVSGTYTAKMVADLNAAGATLAGPEVYQGLMQGVVDCAITGSQYGNSNDWFEVAHSLSPIPLGGAGVVLQVARNAFWDKLSADQQAALSAEMKQLETALWDISRKGHEDGINCNVGKQPCTGKPGKMQLVEPTEADVREVKQLLKTSIVPMWIEDCSKFSKTCGDDWFRTIGAAAGIARLEHHHHHH”, for which the “soluble on expression in E. coli” value was “not soluble”. “MAHHHHHHMNIKRSIYHYLSYSSFLIKNHYHHNNTIYPCFHSLRNNNKMSYFRPNYFICIPIKNDNICNELINIQKHVLVKYDELKDCIIERNKFHISLLILHIKKNQIELSKEAFNEAMEKIKKNMHNEKICFEKLDTFRNDVLYLSLKEDSNKYIINIINHLIDSFSKRGIKIIFNNKKPAKEILSNNNKKELNKNSNDLQHITPHLTLMKNSYMKKMYMNKKPQILPFFYTDYDLTNLLKEQIDIQKIQFLEMDMDTSTSYYKIVSEFNL”: the “soluble on expression in E. coli” value was “not soluble”. As for “GSMIKLFSLKQQKKEEEKGSSKKASAAQLRIQKDINELNLPKTCDISFSDPDDLLNFKLVICPDEGFYKSGKFVFSFKVGQGYPHDPPKVKCETMVYHPNIDLEGNVALNILREDWKPVLTINSIIYGLQYLFLEPNPEDPLNKEAAEVLQNNRRLFEQNVQRSMRGGYIGSTYFERCLK”, the “soluble on expression in E. coli” value was “soluble”.

Consider “MKSTEKKELSHFRLKLETYLNEHFPEMSGNNPFITARSDEALTAYCDAVAQGFSHPEAESMASEVLYQGLHFSRYDTLVSVLEREFEQELPSPLPERLAPILLKNKAIQSVFAKYDLTDDFEASPEYEHLYTELTGTIVLLIESNHLPTIGGGNDTV”, for which the “soluble on expression in E. coli” value is given as “soluble”. The value for “MAHHHHHHMYGDKGPPKGYSVPRFDTNASKRCQTCSSTVHWTFECPLKNSATLSAKKSAATTVKLSPSQMLRYGIKQKSANFVSEPTEREVFDAELRELRSVLTAEVRQELKAKKSAAHKSGNDCKKHEAPLPSAAPKKEPPSDSVTMKTERTEEEE” was “soluble”; that for “MGSDKIHHHHHHMKYTELLQLQTFFSRFKKIDFIKRINDNILELSFDRERFIFDLTRAMSAIYTAKFNAKNYNAPFDFMLKKYFSNAFIKEVKVLEGNRILCFSVKANKAYKSYESKIYFEFTGKNTNVILTDEKDLIIEALRHIDKSYRVVKPNVILESLKPYKMDENFEEIKDFADYFSRKFTSIYESKIKQIKNLKLAQVDKKIQNLQELFSSLDEENSLLLKALEYRKRADVLFANLSVLKDYEREFKLDDFEGKELEFKLEFNPKQSANLYYKNAKKLEQKAKNLNIQRQNLKEKLDFTLSLKELLLQAKSEIELEILLPKKNSKKNQDHKQEDLVANFYFNEFKICVGKNEKGNEFLLKNAKKDDLWLHVRDIPSAHTLIVSNKQKISLDVIEFAARLCVSFSKLKKGSYWVDYTLKNFVKVQQKAFVNYTNFKSINITKD” was “not soluble”. For “MTTTGIIAEFNPFHNGHKYLLDQAHGLKIVAMSGNFVQRGEPAIIDKWTRAQMALENGADLVVELPFLVAVQSADYFASGAVDILAKLGIDTLAFGTETALDYNGLSTIYGKMAEQMSEFLTTLPEKLSYPQKTQLMWEKFAGVQFTGDTPNHILALAYAKACAGRNIRLRPIQRRGADYHSTEKTVAYASATSLRHHRQDPAFVAKSMPNANLFQTSPQVTWEDYFTLLQYQVLTQPDLTQLFQVNEELAIRIKKAIRQVTSFDQLVETVATKRYTKARVRRILIYILIGARETSLPQDVHILGFTAAGRTHLSHIKNKTRIISRIGSQPWDALTQQADQVYQLGNPKIAEQTWGRVPI”, the “soluble on expression in E. coli” value is “not soluble”.

Consider “SLAVDQTRYIFRGDKDALTITVTNNDKERTFGGQAWVDNIVEKDTRPTFVVTPSFFKVKPNGQQTLRIIMASDHLPKDKESVYWLNLQDIPPALEGSGIAVALRTKLKLFYRPKALLEGRKGAEEGISLQSRPDGRTMLVNTTPYIFAIGSLLDGNGKKIATDNGTTQKLLMFMPGDEVQVKGNVVKVDSLNDYGELQTWTINKKKPAAPEAAKAEKADTAEQK”, for which the “soluble on expression in E. coli” value is listed as “soluble”.

Take “ADTYAATRYPVILVHGLAGTDKFANVVDYWYGIQSDLQSHGAKVYVANLSGFQSDDGPNGRGEQLLAYVKQVLAATGATKVNLIGHSQGGLTSRYVAAVAPQLVASVTTIGTPHRGSEFADFVQDVLKTDPTGLSSTVIAAFVNVFGTLVSSSHNTDQDALAALRTLTTAQTATYNRNFPSAGLGAPGSCQTGAATETVGGSQHLLYSWGGTAIQPTSTVLGVTGATDTSTGTLDVANVTDPSTLALLATGAVMINRASGQNDGLVSRCSSLFGQVISTSYHWNHLDEINQLLGVRGANAEDPVAVIRTHVNRLKLQGV”: the “soluble on expression in E. coli” value is reported as “soluble”. In the case of “MILDSQLAQQIVDRTMAIIGYNINVMNQAGVIIGSGEKNRIGQVHDGAILALKHGDSVELTAESCVALKGVKPGINMVLRNQQQVVGIVGITGEPKDIRDFANLVKMSAEMIIEQAALVEQLQWDRRHREEFISAWIHNTLSAAELDAWAARLSIDLSKPRVAVVIAFRQPKSGQSLDQIRQVVELLEHPERDNLVAVVSMQEIVVLKPCRTPEHWTSEYESLRIDKLMARLKAYDITGYDIALGQLFINPNAIHLSYQSAKQVLRIGQVRQPEKQKHLYEELRLPVLLLPLNEGWQGEQWRRVMQELQTQDKSGQLVKTLKGLFAANGNLNLCAQQLFIHRNTLRYRLEKITEITGIETNSLLGLAELYIAYQLTSYD”, the “soluble on expression in E. coli” value is recorded as “soluble”.
